# Data taken from IntAct's records for PubMed 21276203.
# B1: Serine/threonine-protein kinase OXI1 (Arabidopsis thaliana (Mouse-ear cress)), Q9LSF1 (parent)
# chain: MLEGDEKQSRALDFNRLEVLSLLGRGAKGVVFLVRDDDAKLLALKVILKEAIEKKKKGRESEDDEYKRVSFEQGVLSRFDHPLFPSLHGVLATDKVIGYAIDYCPGQNLNSLRKMQSESMFSDEIIRFYAAELVLALDYLHNQGIVYRDLKPDNVMIQENGHLMLIDFDLSTNLAPRTPQPSPSLSKPSPTMKRKKRLFRFTSFCNSGISPQESISVHSSSTLAVSDSSGEKSNSFVGTEEYVAPEVISGDGHDFAVDWWSLGVVLYEMLYGATPFRGSNRKETFYRILSKPPNLTGETTSLRDLIRRLLEKDPSRRINVEEIKGHDFFRGVDWEKVILVSRPPYIPAPDDGGDKGTDVNTKMDVENIVQEIFAARQEREKQSGDNNKNANMKIKDNTSGEWVKGLNNNHDLESDNNFLVF
# partner: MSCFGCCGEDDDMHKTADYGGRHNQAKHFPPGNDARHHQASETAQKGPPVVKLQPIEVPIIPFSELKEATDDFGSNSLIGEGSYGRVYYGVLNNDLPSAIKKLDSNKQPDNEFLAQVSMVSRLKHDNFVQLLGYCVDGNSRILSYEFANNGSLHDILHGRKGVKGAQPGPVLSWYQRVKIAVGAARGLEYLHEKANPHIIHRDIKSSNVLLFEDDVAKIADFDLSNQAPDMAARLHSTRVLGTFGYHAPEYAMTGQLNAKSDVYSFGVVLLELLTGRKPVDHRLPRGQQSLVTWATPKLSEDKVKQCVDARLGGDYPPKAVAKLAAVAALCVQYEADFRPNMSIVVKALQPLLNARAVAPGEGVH
# Variants of: B1
# Conditions: with y2706, O80719
row,effect of a mutation on the interaction,Variant
1,disrupting interaction,K45R
